“And” between values parts separate entries of the source, which are not always exact repeats. Equal values may be shown once.

B1: Ribonuclease, P00648 (parent)
chain: MMKMEGIALKKRLSWISVCLLVLVSAAGMLFSTAAKTETSSHKAHTEAQVINTFDGVADYLQTYHKLPDNYITKSEAQALGWVASKGNLADVAPGKSIGGDIFSNREGKLPGKSGRTWREADINYTSGFRNSDRILYSSDWLIYKTTDHYQTFTKIR

In this series the parent is B1. To be noted: Bacillus amyloliquefaciens, pH 4.4, Thermal, DSC, Sodium acetate/Acetic acid 6.08 mM/13.92 mM/, reversible: yes (>95%), structure 1BNI, whole UniProt chain shown; for ddG of mutation (higher = less stable) / heat capacity change of unfolding / unfolding free energy: 25 °C.

For orientation: Tm means the temperature at which the thermal transition is half complete. On to MMKMEGIALKKRLSWISVCLLVLVSAAGMLFSTAAKTETSSHKAHTEAQVINTFDGVADYLQTYHKLPDNYIGKSEAQALGWVASKGNLADVAPGKSIGGDIFSNREGKLPGKSGRTWREADINYTSGFRNSDRILYSSDWLIYKTTDHYQTFTKIR [T73G], for which the “ddG of mutation (higher = less stable)” value was determined as 8.7 kJ/mol, the “heat capacity change of unfolding” value is 1.6 kcal/mol/K, the unfolding free energy amounted to 27.5 kJ/mol and the Tm stood at 47.6 °C. Also, the “change of melting temperature, mutant - wild type (higher = more stable)” value (“change of melting temperature, mutant” for short) is -4.06 °C; the “unfolding enthalpy (calorimetric)” value was 468 kJ/mol; the “unfolding enthalpy (van 't Hoff)” value came to 496 kJ/mol.
Take MMKMEGIALKKRLSWISVCLLVLVSAAGMLFSTAAKTETSSHKAHTEAQVINTFDGVADYLQTYHKLPMNYITKSEAQALGWVASKGNLADVAPGKSIGGDIFSNREGKLPGKSGRTWREADINYTSGFRNSDRILYSSDWLIYKTTDHYQTFTKIR [D69M]: the “ddG of mutation (higher = less stable)” value was 1.13 kJ/mol, the “heat capacity change of unfolding” value amounted to 1.6 kcal/mol/K, the unfolding free energy was determined as 35.1 kJ/mol and the Tm was 50.1 °C. The “change of melting temperature, mutant” value was -1.57 °C; the “unfolding enthalpy (calorimetric)” value stood at 539 kJ/mol; the “unfolding enthalpy (van 't Hoff)” value came out at 537 kJ/mol.
Consider MMKMEGIALKKRLSWISVCLLVLVSAAGMLFSTAAKTETSSHKAHTEAQVINTFDGVADYLQTYHKLPDNYITKSEAQALGWVASKGNLADVAPGKSIGGDIFSNREGKLPGKSGRTWREADINYTSGFQNSDRILYSSDWLIYKTTDHYQTFTKIR [R130Q], for which the “ddG of mutation (higher = less stable)” value turned out to be 6.61 kJ/mol, the “heat capacity change of unfolding” value is 1.6 kcal/mol/K, the unfolding free energy was 29.6 kJ/mol and the Tm is 48.3 °C. Also, the “change of melting temperature, mutant” value was -3.29 °C; the “unfolding enthalpy (calorimetric)” value came to 488 kJ/mol; the “unfolding enthalpy (van 't Hoff)” value turned out to be 513 kJ/mol.
Take MMKMEGIALKKRLSWISVCLLVLVSAAGMLFSTAAKTETSSHKAHTEAQVINTFDGVADYLQTYHKLPDNYITKSEAQALGWVASKGNLADVAPGKSIGGDIFSNREGKLPGKSGRTWREADINYTSGFRNSDRVLYSSDWLIYKTTDHYQTFTKIR [I135V]: the “ddG of mutation (higher = less stable)” value was 6.15 kJ/mol, the “heat capacity change of unfolding” value stood at 1.6 kcal/mol/K, the unfolding free energy came out at 30.2 kJ/mol and the Tm came to 48.1 °C. Further, the “change of melting temperature, mutant” value is -3.37 °C; the “unfolding enthalpy (calorimetric)” value amounted to 499 kJ/mol; the “unfolding enthalpy (van 't Hoff)” value came to 522 kJ/mol.
MMKMEGIALKKRLSWISVCLLVLVSAAGMLFSTAAKTETSSHKAHTEAQVINTFDGVADYLQRYHKLPDNYITKSEAQALGWVASKGNLADVAPGKSIGGDIFSNREGKLPGKSGRTWREADINYTSGFRNSDRILYSSDWLIYKTTDHYQTFTKIR [T63R]: the “ddG of mutation (higher = less stable)” value is -0.837 kJ/mol, the “heat capacity change of unfolding” value was 1.6 kcal/mol/K, the unfolding free energy was determined as 37.1 kJ/mol and the Tm was 53 °C. Further, the “change of melting temperature, mutant” value amounted to 1.33 °C; the “unfolding enthalpy (calorimetric)” value is 528 kJ/mol; the “unfolding enthalpy (van 't Hoff)” value turned out to be 543 kJ/mol.
Take MMKMEGIALKKRLSWISVCLLVLVSAAGMLFSTAAKTETSSHKAHTEAQVINTFDGVADYLQTYHKLPDNYITKSEAQALGWVASKGNLADVAPGKSIGGDIFSNREGKLPGKSGMTWREADINYTSGFRNSDRILYSSDWLIYKTTDHYQTFTKIR [R116M]: the “ddG of mutation (higher = less stable)” value was 12 kJ/mol, the “heat capacity change of unfolding” value was determined as 1.6 kcal/mol/K, the unfolding free energy was 24.3 kJ/mol and the Tm came to 45.9 °C. For the same variant, the “change of melting temperature, mutant” value is -5.77 °C; the “unfolding enthalpy (calorimetric)” value was determined as 442 kJ/mol; the “unfolding enthalpy (van 't Hoff)” value came out at 492 kJ/mol.
As for MMKMEGIALKKRLSWISVCLLVLVSAAGMLFSTAAKTETSSHKAHTEAQVINTFDGVAGYLQTYHKLPDNYITKSEAQALGWVASKGNLADVAPGKSIGGDIFSNREGKLPGKSGRTWREADINYTSGFRNSDRILYSSDWLIYKTTDHYQTFTKIR [D59G], the “ddG of mutation (higher = less stable)” value turned out to be 3.26 kJ/mol, the “heat capacity change of unfolding” value came out at 1.6 kcal/mol/K, the unfolding free energy was 33 kJ/mol and the Tm was 49.7 °C. Besides, the “change of melting temperature, mutant” value is -1.95 °C; the “unfolding enthalpy (calorimetric)” value is 516 kJ/mol; the “unfolding enthalpy (van 't Hoff)” value worked out at 520 kJ/mol.
As to MMKMEGIALKKRLSWISVCLLVLVSAAGMLFSTAAKTETSSHKAHTEAQVINTFDGVADYLQTYHKLPDNYITKSEAQALGWVASKGNLADVAPGKSIGGDIFSNREGKLPGKSGRTWREADINYTSGFRNSDRILYASDWLIYKTTDHYQTFTKIR [S138A], the “ddG of mutation (higher = less stable)” value is 5.77 kJ/mol and 4.85 kJ/mol; the “heat capacity change of unfolding” value came to 1.6 kcal/mol/K; the unfolding free energy was 30.6 kJ/mol and 31.5 kJ/mol; the Tm came to 46.7 °C. The “change of melting temperature, mutant” value is -4.81 °C and -4.8 °C; the “unfolding enthalpy (calorimetric)” value was 526 kJ/mol and 538 kJ/mol; the “unfolding enthalpy (van 't Hoff)” value was 485 kJ/mol and 482 kJ/mol.
As to MMKMEGIALKKRLSWISVCLLVLVSAAGMLFSTAAKTETSSHKAHTEAQVINTFDGVADYLQTYHKLPDNYITKSEAQALGWVASKGNLADVAPGKSIGGNIFSNREGKLPGKSGRTWREADINYTSGFRNSDRILYSSDWLIYKTTDHYQTFTKIR [D101N], the “ddG of mutation (higher = less stable)” value was 10.3 kJ/mol and 11.1 kJ/mol; the “heat capacity change of unfolding” value was determined as 1.6 kcal/mol/K; the unfolding free energy was 25.9 kJ/mol and 25.1 kJ/mol; the Tm is 44.6 °C and 44.1 °C. Besides, the “change of melting temperature, mutant” value is -7.06 °C and -7.49 °C; the “unfolding enthalpy (calorimetric)” value is 488 kJ/mol and 481 kJ/mol; the “unfolding enthalpy (van 't Hoff)” value was 474 kJ/mol and 484 kJ/mol.
Take MMKMEGIALKKRLSWISVCLLVLVSAAGMLFSTAAKTETSSHKAHTEAQVINTFDGVADYLQTYHKLPDNYITKSEAQALGWVASKGNLADVAPGKSIGGDIFSNREGKLPGKSGRTWREADINYTSGFRNSDRILYSADWLIYKTTDHYQTFTKIR [S139A]: the “ddG of mutation (higher = less stable)” value was found to be 11.8 kJ/mol, the “heat capacity change of unfolding” value turned out to be 1.6 kcal/mol/K, the unfolding free energy worked out at 24.4 kJ/mol and the Tm came to 44.5 °C. The “change of melting temperature, mutant” value was -7.13 °C; the “unfolding enthalpy (calorimetric)” value came to 464 kJ/mol; the “unfolding enthalpy (van 't Hoff)” value was 461 kJ/mol.
As to MMKMEGIALKKRLSWISVCLLVLVSAAGMLFSTAAKTETSSHKAHTEAQVINTFDGVADYLQTYHKLPDNYITKSEAQALGWVASKGNLADVAPGKSVGGDIFSNREGKLPGKSGRTWREADINYTSGFRNSDRILYSSDWLIYKTTDHYQTFTKIR [I98V], the “ddG of mutation (higher = less stable)” value was determined as 7.78 kJ/mol, the “heat capacity change of unfolding” value was found to be 1.6 kcal/mol/K, the unfolding free energy is 28.6 kJ/mol and the Tm was 47 °C. For the same variant, the “change of melting temperature, mutant” value is -4.53 °C; the “unfolding enthalpy (calorimetric)” value was found to be 492 kJ/mol; the “unfolding enthalpy (van 't Hoff)” value is 479 kJ/mol.
Take MMKMEGIALKKRLSWISVCLLVLVSAAGMLFSTAAKTETSSHKAHTEAQVINTFAGVADYLQTYHKLPDNYITKSEAQALGWVASKGNLADVAPGKSIGGDIFSNREGKLPGKSGRTWREADINYTSGFRNSDRILYSSDWLIYKTTDHYQTFTKIR [D55A]: the “ddG of mutation (higher = less stable)” value came out at 2.89 kJ/mol, the “heat capacity change of unfolding” value worked out at 1.6 kcal/mol/K, the unfolding free energy was 33.3 kJ/mol and the Tm stood at 49.7 °C. Further, the “change of melting temperature, mutant” value is -1.91 °C; the “unfolding enthalpy (calorimetric)” value is 520 kJ/mol; the “unfolding enthalpy (van 't Hoff)” value came out at 533 kJ/mol.
As to MMKMEGIALKKRLSWISVCLLVLVSAAGMLFSTAAKTETSSHKAHTEAQVINTFDGVADYLQTYHKLPDNYITKSEAQALGWVASKGNLADVAPGKSIGGDIFSNREGKLPGKSGRTWREADINYTSGFRNSDRILYSSDWLVYKTTDHYQTFTKIR [I143V], the “ddG of mutation (higher = less stable)” value is 4.94 kJ/mol and 4.9 kJ/mol; the “heat capacity change of unfolding” value turned out to be 1.6 kcal/mol/K; the unfolding free energy was 31.4 kJ/mol and 31.5 kJ/mol; the melting temperature (Tm) stood at 49.2 °C. The “change of melting temperature, mutant” value is -2.29 °C and -2.3 °C; the “unfolding enthalpy (calorimetric)” value is 502 kJ/mol and 469 kJ/mol; the “unfolding enthalpy (van 't Hoff)” value is 523 kJ/mol and 516 kJ/mol.
